Data: article PMC5940202, “A novel α-galactosidase from the thermophilic probiotic Bacillus coagulans with remarkable protease-resistance and high hydrolytic activity” (PLoS ONE, 2018)

What was measured:
Aga-BC7050 = biological target: T1, Aga-BC7050 (Heyndrickxia coagulans, UniProt A0A8B4BWV9); assay: pNPGal hydrolysis with added sugar; type: biochemical; settings: substrate pNPGal; McIlvaine buffer; galactose is also the reaction product
T1 construct: GH36 homodimer, 168 kDa by gel filtration; predicted nucleophile Asp477, acid/base Asp547
T1 sequence (A0A8B4BWV9 1-730): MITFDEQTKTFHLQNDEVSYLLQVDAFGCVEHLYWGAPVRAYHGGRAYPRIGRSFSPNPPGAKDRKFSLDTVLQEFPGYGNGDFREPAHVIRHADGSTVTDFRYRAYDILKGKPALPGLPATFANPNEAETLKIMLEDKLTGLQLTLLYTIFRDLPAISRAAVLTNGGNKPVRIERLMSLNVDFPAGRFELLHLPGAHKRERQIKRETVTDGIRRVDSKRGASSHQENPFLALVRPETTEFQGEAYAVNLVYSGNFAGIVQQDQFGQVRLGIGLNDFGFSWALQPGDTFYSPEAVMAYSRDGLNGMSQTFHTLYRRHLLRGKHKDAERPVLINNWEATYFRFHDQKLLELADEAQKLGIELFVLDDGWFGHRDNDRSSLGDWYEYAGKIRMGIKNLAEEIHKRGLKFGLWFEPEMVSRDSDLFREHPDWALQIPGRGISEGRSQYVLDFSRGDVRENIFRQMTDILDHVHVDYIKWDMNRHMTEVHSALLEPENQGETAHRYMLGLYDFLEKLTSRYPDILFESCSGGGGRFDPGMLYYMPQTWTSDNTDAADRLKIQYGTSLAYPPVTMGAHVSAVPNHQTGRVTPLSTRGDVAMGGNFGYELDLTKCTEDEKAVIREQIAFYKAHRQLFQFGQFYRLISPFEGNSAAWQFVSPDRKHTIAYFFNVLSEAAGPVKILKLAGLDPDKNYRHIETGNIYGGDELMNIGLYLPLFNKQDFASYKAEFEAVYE

[1] = biological target: α-galactosidase Aga-BC7050 from Bacillus coagulans ATCC 7050 (Bacillus coagulans ATCC 7050); assay: SEC; analytical gel filtration, Superdex 200 Increase 10/300 GL, 10 mM phosphate buffer, 0.14 M NaCl, pH 7.4, 0.75 mL/min, room temperature; calibrated with albumin, lactate dehydrogenase, catalase, ferritin, thyroglobulin; native mass compared with SDS-PAGE mass
purified protein [2] = substrate: O=[N+]([O-])c1ccc(O[C@H]2O[C@H](CO)[C@H](O)[C@H](O)[C@H]2O)cc1; assay: purified protein; type: biochemical, Heyndrickxia coagulans; settings: McIlvaine buffer pH 6.0, 55 °C
purified protein [3] = substrate: OC[C@H]1O[C@H](OC[C@H]2O[C@H](O[C@]3(CO)O[C@H](CO)[C@@H](O)[C@@H]3O)[C@H](O)[C@@H](O)[C@@H]2O)[C@H](O)[C@@H](O)[C@H]1O; assay: purified protein; type: biochemical, Heyndrickxia coagulans; settings: McIlvaine buffer pH 6.0, 55 °C

Q: With OC[C@H]1OC(O)[C@H](O)[C@@H](O)[C@H]1O (stereo partly shown) [galactose] as the molecule, how does the “% decrease of activity at 100 mM” value (Aga-BC7050) read?
A: 24.4%

Q: For “α-galactosidase Aga-BC7050 from Bacillus coagulans ATCC 7050 (enzyme)”, which stoichiometry N [1] is on record?
A: 2

B1: Aga-BC7050 (Heyndrickxia coagulans DSM 1 = ATCC 7050) (protein)
chain: T1 sequence (A0A8B4BWV9 1-730)
notes: GH36 homodimer, 168 kDa by gel filtration; predicted nucleophile Asp477, acid/base Asp547
Q: For B1, which Km (purified protein [2]) is on record?
A: 1.1 ± 0.2 mM

Q: What about the Vmax (purified protein [2]) of the same molecule?
A: 655 µmol/min/mg

Q: And the kcat (purified protein [2])?
A: 942 ± 73.9 s⁻¹

Q: And the kcat/Km (purified protein [2])?
A: 844000 M⁻¹ s⁻¹

Q: What about the Km (purified protein [3]) of the same molecule?
A: 53.7 ± 0.9 mM

Q: What about the Vmax (purified protein [3]) of the same molecule?
A: 1140 µmol/min/mg

Q: And the kcat (purified protein [3])?
A: 1610 ± 53.4 s⁻¹

Q: What about the kcat/Km (purified protein [3]) of the same molecule?
A: 30500 M⁻¹ s⁻¹
